Measurements published in patent US20240254201A1 (ACADEMY OF MILITARY MEDICAL SCIENCE PLA, published 2024).

What was measured:
GPdMucin [1] = biological target: T1, GPdMucin (Ebola virus (EBOV), UniProt Q05320 33-632); assay: ELISA on coated truncated GP
T1 construct: domain: GPdMucin; also called GPΔMuc; GPdmucin-His6

GPdMucin [2] = biological target: T1, GPdMucin; assay: SPR, BIACORE 3000; 2G1 captured by anti-human IgG Fc on CM5, GPdMucin as analyte

B1: monoclonal antibody 2G1 (antibody, V domains shown)
VH: EVQLVESGGGLVKRGGSLRLSCVVSGYTFGGYSMHWVRQAPGKGLEWVSGISSSSYYKYYADSVKGRFTISRDNAKNSLYLQMNSLRAEDTAVYYCARDMGYCSGGSCPNFDFWGQGTTVTVSS
VL: DIQMTQSPSSLSASVGDRVTITCRTSQSISNYLNWYQQIPGKAPKLLISTASNLHSGVSSRFSGSGSGTHFTLTISSLQPEDFATYYCQQSYSTPSFGQGTKVEIKR
notes: also called 2G1-WT; wild-type 2G1
Work on B1 yielded an EC50 (GPdMucin [1]) of 3.7 ng/mL, a Kd (GPdMucin [2]) of 0.734 nM and a koff (GPdMucin [2]) of 3.75e-05 s⁻¹. For the same binder, the kon (GPdMucin [2]) was 51100 M⁻¹ s⁻¹.
